Like-named read-outs stand apart in the source and are kept apart here.
Legend:
[1] = target: T1, recombinant his-tagged homotrimeric SARS-CoV-2 spike protein (SARS-CoV-2, UniProt P0DTC2 16-1211); assay: flow cytometry, blocking of binding to hACE-2 cells
[2] = target: T2, recombinant monomeric SARS-CoV-2 S1 protein, his-tagged (SARS-CoV-2, UniProt P0DTC2 16-681); assay: as above
T2 construct: domain: S1

[3] = target: T3, recombinant monomeric SARS-CoV-1 S1 protein (SARS-CoV-1, UniProt P59594 14-667); assay: as above
[4] = target: T4, SARS-CoV spike RBD (R306-F527), C-terminal 6-His (SARS-CoV, UniProt P59594 306-527); assay: as above
[5] = target: T3, recombinant monomeric SARS-CoV-1 S1 …; assay: as above; remark: listed apart in the source
[6] = target: T1, recombinant his-tagged homotrimeric …; assay: as above; remark: listed apart in the source
[7] = target: T4, SARS-CoV spike RBD (R306-F527), …; assay: as above; remark: listed apart in the source
[8] = target: T2, recombinant monomeric SARS-CoV-2 S1 …; assay: as above; remark: listed apart in the source
BSA = target: T5, BSA (bovine, UniProt P02769); assay: dipstick, adsorbed protein spots, Ab 10 µg/mL (reference)
T5 construct: also called bovine serum albumin

[9] = target: T4, SARS-CoV spike RBD (R306-F527), …; assay: lateral flow NC50, RBD-AuNP vs immobilised ACE2
[10] = target: T3, recombinant monomeric SARS-CoV-1 S1 …; assay: antigen-down ELISA, coated SARS-CoV-1 S1 titrated, Ab 1 µg/mL
[11] = target: T4, SARS-CoV spike RBD (R306-F527), …; assay: dipstick, adsorbed RBD spots, Ab 10 µg/mL, GAM-AuNP

T5 sequence (P02769 25-607 limits assumed): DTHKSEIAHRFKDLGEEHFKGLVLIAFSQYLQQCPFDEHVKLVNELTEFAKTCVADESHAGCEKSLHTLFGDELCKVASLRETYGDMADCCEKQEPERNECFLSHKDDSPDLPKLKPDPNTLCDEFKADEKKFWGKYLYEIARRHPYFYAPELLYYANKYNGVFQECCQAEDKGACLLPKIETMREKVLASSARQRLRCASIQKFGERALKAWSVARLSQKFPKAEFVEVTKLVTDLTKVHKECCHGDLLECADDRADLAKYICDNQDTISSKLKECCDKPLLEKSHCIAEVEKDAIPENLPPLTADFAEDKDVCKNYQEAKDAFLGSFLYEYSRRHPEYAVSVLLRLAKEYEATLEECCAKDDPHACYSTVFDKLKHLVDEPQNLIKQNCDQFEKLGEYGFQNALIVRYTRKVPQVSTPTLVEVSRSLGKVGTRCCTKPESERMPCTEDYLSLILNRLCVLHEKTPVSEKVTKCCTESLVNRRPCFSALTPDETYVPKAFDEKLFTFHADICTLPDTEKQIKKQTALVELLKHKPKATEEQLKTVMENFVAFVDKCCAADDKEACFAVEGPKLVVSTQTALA

Binder	percent blocking [1]	percent blocking [2]	percent blocking [3]	percent blocking [4]	percent blocking [5]	percent blocking [6]	percent blocking [7]	percent blocking [8]	binding result (BSA)	IC50 [9]	binding result [10]	binding result [11]
1035716 (antibody, V domains shown) VH: EVLLQQSGPELVKPGASVKIPCKASGYTFTDYNMDWVKQSHGKSLEWIGDINPNNGGTIYNQKFKGKATLTVDKSSSTAYMELRSLTSEDTAVYYCAREGYGNYFDYWGQGTTLTVSS VL: DILLTQSPAILSVSPGERVSFSCRASQSIGTSIHWYQQRTNGSPRLLIKYASESISGIPSRFSGSGSGTDYTLSINSVESEDIADYYCQQSYSWPTTFGAGTKLELK	96.5%	93.8%	89.5%	68.7%	89.5%	96.5%	68.7%	93.8%	–	–	–	–
1035414 (antibody, V domains shown) VH: QVQLKQSGAELVRPGASVKLSCKTSGYIFTSYWIHWVKQRSGQGLEWIARIYPGTGNTYYNEKFKGKATLTADKSSTTAYMQLSSLKSEDSAVYFCARGEDNLYYYAMDYWGQGTSVTVSS VL: NIVLTQSPASLAVSLGQRATISCRASESVDSYGTSFMHWYQQKPGQPPKLLIYLASNLESGVPASFSGSGSRTDFTLTIDPVEADDAATYYCQQNNEDPWTFGGGTKLEIK	51.4%	25.9%	12%	0.4%	12%	51.4%	0.4%	25.9%	–	–	–	–
1035419 (antibody, V domains shown) VH: QVQLKQSGAELVRPGASVKLSCKTSGYIFTSYWIHWIKQRSGQGLEWIARIYPGTGSTYNNEKFKGKATLTADKSSSTAYMQLSSLKSEDSAVYFCARGEDNLYFYAMDYWGQGTSVTVSS VL: NIVLTQSPASLAVSLGQRATISCRASESVDSYGASFMHWCQQKPGQPPKLLIYLASNLESGVPARFSGSGSRTDFTLTIDPVEADDAATYYCQQNYEDPWTFGGGTKLEIK	89%	70.1%	88.5%	44.1%	88.5%	89%	44.1%	70.1%	no binding (tested: 10 µg/mL)	2.86 µg/mL	–	–
1035224 (antibody, V domains shown) VH: EVQLQQSGAEFVRPGALVKLSCKASGFNIKDDYMHWVKQRPEQGLEWIGWIDPENGNSIYDPKFQGKASITADTSSNTAYLQLSSLTSEDTAVYYCARGEYFGSGSFAYWGQGTLVTVSA VL: QIVLTQSPAIMSASPGEKVTISCSASSSVSYMYWYQQKPGSSPKPWIYRTSNLASGVPARFSGSGSGTSYSLTISSMEAEDAATYYCQQYHSYPYMYTFGGGTKLEIK	96.6%	86.6%	0%	0%	0%	96.6%	0%	86.6%	–	–	no binding (tested: 400 ng coated (axis))	no binding (tested: 10 µg/mL)
